How the values were obtained:
[1] = target: T1, receptor for HCG in plasma membranes from bovine corpora lutea (Bos taurus, UniProt Q28005); experiment: Radioreceptorassay of HCG: competition with 125I-HCG for plasma membrane receptor; format: binding; conditions: for cross-reaction in the radioreceptorassay of HCG: highly purified preparations, 30 minutes at 37° C
T1 construct: 100 g. of tissue from approximately 25 large corpora lutea; from tissue; host or cells: bovine corpora lutea of early pregnancy (slaughterhouse), plasma membrane fraction from zonal sucrose gradient
T1 sequence (Q28005 27-701): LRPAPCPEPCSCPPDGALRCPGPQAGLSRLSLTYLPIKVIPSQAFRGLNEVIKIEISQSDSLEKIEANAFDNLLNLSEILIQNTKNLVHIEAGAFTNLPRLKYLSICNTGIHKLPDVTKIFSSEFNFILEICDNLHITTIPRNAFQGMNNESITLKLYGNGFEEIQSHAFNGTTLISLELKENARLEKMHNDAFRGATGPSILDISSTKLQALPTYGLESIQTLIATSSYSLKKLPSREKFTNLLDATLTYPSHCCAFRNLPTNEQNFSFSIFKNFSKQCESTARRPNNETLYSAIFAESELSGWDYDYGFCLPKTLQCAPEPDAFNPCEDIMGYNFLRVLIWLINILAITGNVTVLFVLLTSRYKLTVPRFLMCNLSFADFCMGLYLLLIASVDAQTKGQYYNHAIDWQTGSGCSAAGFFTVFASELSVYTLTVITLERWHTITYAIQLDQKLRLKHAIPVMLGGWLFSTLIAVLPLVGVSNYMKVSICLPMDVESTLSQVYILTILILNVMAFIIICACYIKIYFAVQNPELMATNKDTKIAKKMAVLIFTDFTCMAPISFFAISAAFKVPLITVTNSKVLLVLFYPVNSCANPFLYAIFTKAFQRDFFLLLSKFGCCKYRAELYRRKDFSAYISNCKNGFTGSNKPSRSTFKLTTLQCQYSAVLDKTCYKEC
Method: All procedures in the preparation of plasma membranes were carried out in an ice bath or at 4° C. Fresh bovine ovaries from early pregnancy (first trimester: fetus length from crown to rump up to 22 cm.) were obtained from the slaughter house and stored in liquid nitrogen until processed. In a typical experiment, 100 g. of tissue from approximately 25 large corpora lutea were cut into small pieces with a sharp steel blade and ground in 500 ml. of 10 mM. Tris-HCl buffer of pH. 7.8 containing one mM. of MgCl2, one MM. dithiothreitol, 10,000I.U. of Trasylol (FBA Pharmaceuticals) per liter and 0.25 M. sucrose. The homogenate was filtered through two layers of cheese cloth and the larger particles were reprocessed in 500 ml. of the buffer. […] The homogenate was centifuged at 650 xg. for 20 minutes in a Sorvall refrigerated centrifuge (RC B, Rotor GSA) to remove intact cells, cell debris and nuclei. The 650 × g. supernatant was again centrifuged at 13,000 g. for 20 minutes in the same centrifuge. Supernatant was this time discarded and the pellet was resuspended in 50 to 70 ml. of the Tris-HCl buffer with the aid of the Teflon-glass homogenizer. This suspension was injected in the core of a TI-14 zonal rotor (Model Beckman Spinco L3-50) spinning at 3,000 rpm. and containing 500 ml. of a linear sucrose gradient (LKB Ultrograd 11300 pump) from 30% (w/v) to 50% (w/v) sucrose and 120 ml. of cushion of 50% (w/v) sucrose (pumping rate 20 ml./min.) An overlay of 20 ml. was injected after the sample. After two hours of centrifugation at 45,000 rpm., the centrifuge was decelerated and the rotor content displaced with 55% sucrose at 20 ml./min. […]
In Table I, the incubation was performed for 30 minutes at 37° C. in a Dunaboff water bath shaker. […] The supernates were aspirated and the pellets were counted in a Packard Autogamma counter with a 51% efficiency for I^125. The standard curves and the hormonal concentration in the plasma samples were calculated by a time sharing IBM computer using logit-log transformations.

[2] = target: T2, PRL receptor sites in ovarian homogenates (Bos taurus, UniProt Q28172); experiment: Specificity of 125I-hPRL binding: displacement by unlabeled hormones; parameters: species or system bovine
T2 construct: from tissue; host or cells: ovarian homogenate (bovine, from the preparation section)
T2 sequence (Q28172 25-581): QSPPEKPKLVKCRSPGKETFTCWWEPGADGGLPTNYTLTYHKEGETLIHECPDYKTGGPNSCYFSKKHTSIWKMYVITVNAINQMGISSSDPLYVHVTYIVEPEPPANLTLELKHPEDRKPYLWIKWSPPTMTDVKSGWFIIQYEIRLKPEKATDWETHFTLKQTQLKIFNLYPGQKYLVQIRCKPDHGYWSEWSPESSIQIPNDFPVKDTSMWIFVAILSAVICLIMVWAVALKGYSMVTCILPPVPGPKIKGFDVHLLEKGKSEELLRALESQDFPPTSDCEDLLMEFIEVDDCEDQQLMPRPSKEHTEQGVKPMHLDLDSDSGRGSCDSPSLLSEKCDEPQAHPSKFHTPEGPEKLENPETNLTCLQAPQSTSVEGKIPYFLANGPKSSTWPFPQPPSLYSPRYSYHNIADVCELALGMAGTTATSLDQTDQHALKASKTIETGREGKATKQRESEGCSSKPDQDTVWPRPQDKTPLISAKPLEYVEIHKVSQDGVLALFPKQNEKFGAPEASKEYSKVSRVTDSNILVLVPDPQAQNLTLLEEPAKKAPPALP
Method: A reaction mixture containing 100 ul of incubation buffer containing 10 IU Trasylol (FBA Pharmaceuticals, New York, New York), 50 ul of receptor preparation equivalent to 1-300 ug of protein and 100 ul of ^125 I-hPRL (SA; 50-70 uCi/ug) were incubated at 37° C. for 2 hours in the absence and in the presence of 1 ug of unlabeled bovine PRL. At the end of incubation, 1 ml of ice cold buffer was added to all tubes and tubes were centrifuged at 5,000 rpm for 20 minutes. The supernatants were aspirated. The pellets containing receptor bound hormones were counted in an Automamma counter with a 51% efficiency for ^125 I (Packard Instrument Company, Downers Grove, Illinois). Specific binding was calculated as the difference of binding in the tubes with and without unlabeled PRL.

[3] = target: T3, PRL receptor sites in plasma membrane from bovine corpora lutea (Bos taurus, UniProt Q28172); experiment: Binding of 125I-hPRL to plasma membrane / ovarian homogenate (saturation, time course)
T3 construct: plasma membrane from bovine corpora lutea; from tissue; host or cells: bovine corpora lutea, plasma membranes
T3 sequence (Q28172 25-581): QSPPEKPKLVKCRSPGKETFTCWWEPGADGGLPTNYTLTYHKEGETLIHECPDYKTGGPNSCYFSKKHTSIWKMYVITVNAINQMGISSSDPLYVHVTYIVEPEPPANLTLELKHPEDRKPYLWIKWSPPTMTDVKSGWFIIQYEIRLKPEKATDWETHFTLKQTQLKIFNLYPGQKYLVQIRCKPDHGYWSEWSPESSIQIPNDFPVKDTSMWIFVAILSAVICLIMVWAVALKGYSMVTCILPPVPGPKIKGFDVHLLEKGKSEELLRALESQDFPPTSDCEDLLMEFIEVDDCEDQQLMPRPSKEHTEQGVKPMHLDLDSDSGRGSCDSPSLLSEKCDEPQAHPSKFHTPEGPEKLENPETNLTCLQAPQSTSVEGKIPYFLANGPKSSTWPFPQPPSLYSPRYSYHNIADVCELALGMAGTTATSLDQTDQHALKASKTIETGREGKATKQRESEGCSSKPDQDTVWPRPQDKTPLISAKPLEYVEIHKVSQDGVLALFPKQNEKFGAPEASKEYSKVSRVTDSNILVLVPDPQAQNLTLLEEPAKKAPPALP
Method: […] At the end of incubation, 1 ml of ice cold buffer was added to all tubes and tubes were centrifuged at 5,000 rpm for 20 minutes. The supernatants were aspirated. The pellets containing receptor bound hormones were counted in an Automamma counter with a 51% efficiency for ^125 I (Packard Instrument Company, Downers Grove, Illinois). Specific binding was calculated as the difference of binding in the tubes with and without unlabeled PRL. Specific binding of ^125 I-hPRL to plasma membrane from bovine corpora lutea was a saturable process.

B1: HPL: highly purified preparation of HPL, abbreviation not expanded in the text (protein, UniProt P0DML2 27-217, looked up)
Chorionic somatomammotropin …: VQTVPLSRLFDHAMLQAHRAHQLAIDTYQEFEETYIPKDQKYSFLHDSQTSFCFSDSIPTPSNMEETQQKSNLELLRISLLLIESWLEPVRFLRSMFANNLVYDTSDSDDYHLLKDLEEGIQTLMGRLEDGSRRTGQILKQTYSKFDTNSHNHDALLKNYGLLYCFRKDMDKVETFLRMVQCRSVEGSCGF
- cross-reaction in the radioreceptorassay of HCG [1]: complete lack of cross-reaction

B2: human chorionic somatomammotropin (protein, UniProt P0DML2 27-217, looked up)
Chorionic somatomammotropin …: VQTVPLSRLFDHAMLQAHRAHQLAIDTYQEFEETYIPKDQKYSFLHDSQTSFCFSDSIPTPSNMEETQQKSNLELLRISLLLIESWLEPVRFLRSMFANNLVYDTSDSDDYHLLKDLEEGIQTLMGRLEDGSRRTGQILKQTYSKFDTNSHNHDALLKNYGLLYCFRKDMDKVETFLRMVQCRSVEGSCGF
- displacement of 125I-hPRL bound to receptor protein ([2]; various concentrations): capable of displacing

B3: prolactin (protein, UniProt P01236 29-227, looked up)
Prolactin: LPICPGGAARCQVTLRDLFDRAVVLSHYIHNLSSEMFSEFDKRYTHGRGFITKAINSCHTSSLATPEDKEQAQQMNQKDFLSLIVSILRSWNEPLYHLVTEVRGMQEAPEAILSKAVEIEEQTKRLLEGMELIVSQVHPETKENEIYPVWSGLPSLQMADEESRLSAYYNLLHCLRRDSHKIDNYLKLLKCRIIHNNNC
- cross-reaction in the radioreceptorassay of HCG (FIG. 2) ([1]; FIG. 2 legends: TSH, HGH, PRL are plasma from hypothyroid, acromegalic, postpartum lactation subjects): no cross-reaction
- cross-reaction in the radioreceptorassay of HCG [1]: complete lack of cross-reaction

B4: ^125 I-hPRL: human prolactin iodinated with 125I by chloramine-T or lactoperoxidase (protein, UniProt P01236 29-227, looked up)
Prolactin: LPICPGGAARCQVTLRDLFDRAVVLSHYIHNLSSEMFSEFDKRYTHGRGFITKAINSCHTSSLATPEDKEQAQQMNQKDFLSLIVSILRSWNEPLYHLVTEVRGMQEAPEAILSKAVEIEEQTKRLLEGMELIVSQVHPETKENEIYPVWSGLPSLQMADEESRLSAYYNLLHCLRRDSHKIDNYLKLLKCRIIHNNNC
modifications: 125I label
notes: human prolactin iodinated with 125I by chloramine-T or lactoperoxidase
- fraction of 125I-hPRL bound ([3]; 100 ug of homogenate, absence of unlabeled PRL): 20-20%
- time to reach binding equilibrium ([3]; 37° C): 2 h
- binding ([3]; incubation): little binding

B5: bovine PRL: bovine prolactin, unlabeled (protein, UniProt P01239 31-229, looked up)
Prolactin: TPVCPNGPGNCQVSLRDLFDRAVMVSHYIHDLSSEMFNEFDKRYAQGKGFITMALNSCHTSSLPTPEDKEQAQQTHHEVLMSLILGLLRSWNDPLYHLVTEVRGMKGAPDAILSRAIEIEEENKRLLEGMEMIFGQVIPGAKETEPYPVWSGLPSLQTKDEDARYSAFYNLLHCLRRDSSKIDTYLKLLNCRIIYNNNC
- potency in competing with 125I-hPRL [2]: essentially of similar potency
- effect on specific binding of 125I-hPRL to ovarian homogenates ([2]; 1 ug unlabeled hormone added): inhibited

B6: ovine PRL: ovine prolactin (protein, UniProt P01240 31-229, looked up)
Prolactin: TPVCPNGPGNCQVSLRDLFDRAVMVSHYIHNLSSEMFNEFDKRYAQGKGFITMALNSCHTSSLPTPEDKEQAQQTHHEVLMSLILGLLRSWNDPLYHLVTEVRGMKGVPDAILSRAIEIEEENKRLLEGMEMIFGQVIPGAKETEPYPVWSGLPSLQTKDEDARHSAFYNLLHCLRRDSSKIDTYLKLLNCRIIYNNNC
- potency in competing with 125I-hPRL [2]: essentially of similar potency

From patent US4016250A, “Method for testing for pregnancy” (Cornell Research Foundation, Inc., priority 1974, dated 1977)
